The text below walks through data of article PMC3900457.

The labels stand for the following.
B1: wild-type ecdysone receptor DNA binding domain (EcRDBDWT) [Drosophila melanogaster] / itself (parent)
chain: APRVQEELCLVCGDRASGYHYNALTCEGCKGFFRRSVTKSAVYCCKFGRACEMDMYMRRKCQECRLKKCLAVGMRPECVVPENQCAMKRREKKAQKEKDKMTTSPSSQHG
B2: wild-type ecdysone receptor DNA binding domain (EcRDBDWT) [Drosophila melanogaster] / ultraspiracle DNA binding domain (UspDBD) [Drosophila melanogaster] (parent)
chain 1: B1 chain
chain 2: NHPLSGSKHLCSICGDRASGKHYGVYSCEGCKGFFKRTVRKDLTYACRENRNCIIDKRQRNRCQYCRYQKCLTCGMKREAVQEERQ

The variants in one test derive from B1. As to the kind of experiment: EMSA. To be noted: with itself; total protein 50 nM; homodimer complex (CIIE) on hsp27pal DNA probe; parent: 19; read off a plot. A general note: Mobility shift assays separate free from complexed probe on a gel.
With chain 1 M57W L66F, the response (% hsp27pal bound) was 31. Same read-out and setting: the same measure for chain 1 L24R M57W L66F: 36; for chain 1 L24R M57W: 22; for chain 1 L24R L66F: 20.

The same test, now with this note: with itself; total protein 200 nM; homodimer complex (CIIE) on hsp27pal DNA probe; parent: 44; read off a plot.
As to chain 1 M57W, the response (% hsp27pal bound) is 42. The same measure, in the same setting: the same measure for chain 1 L66F: 47; for chain 1 V72M: 23.

In the case of chain 1 V72E, the response (% hsp27pal bound) is 7.4. Same read-out and setting: as for chain 1 C69A, the figure is 39; as for chain 1 L24R, 45.

In the next test the parent is B2. As to the kind of experiment: EMSA. To be noted: with ultraspiracle DNA binding domain (UspDBD) [Drosophila melanogaster]; equimolar mixture of EcRDBD and UspDBD, total protein 50 nM; heterodimer complex (CIIUE) on hsp27pal DNA probe; parent: 42; read off a plot.
chain 1 M57W L66F: the response (% hsp27pal bound) came out at 51. Same read-out and setting: the same measure for chain 1 L24R M57W L66F: 57. Same read-out and setting: the same measure for chain 1 L24R M57W: 45. On the same count and under the same terms, the same measure for chain 1 L24R L66F: 39.

Still in this test, the particulars now being: with ultraspiracle DNA binding domain (UspDBD) [Drosophila melanogaster]; equimolar mixture of EcRDBD and UspDBD, total protein 200 nM; heterodimer complex (CIIUE) on hsp27pal DNA probe; parent: 62; read off a plot.
On to chain 1 C69A, for which the response (% hsp27pal bound) amounted to 55. As for chain 1 L66F, the response (% hsp27pal bound) came to 64. Same read-out and setting: the same measure for chain 1 L24R: 58. Take chain 1 V72E: the response (% hsp27pal bound) was 42. Still for that read-out and setting: the same measure for chain 1 V72M: 57; for chain 1 M57W: 61.
